{"source": "patent US8299023", "about": "(Hoffmann-La Roche, dated 2012)", "assay_in_all_cases": "cell-based or functional assay", "key": {"[1]": {"target": "T1, human NPY2 receptor (human, UniProt P49146 1-381)", "T1 sequence (looked up)": "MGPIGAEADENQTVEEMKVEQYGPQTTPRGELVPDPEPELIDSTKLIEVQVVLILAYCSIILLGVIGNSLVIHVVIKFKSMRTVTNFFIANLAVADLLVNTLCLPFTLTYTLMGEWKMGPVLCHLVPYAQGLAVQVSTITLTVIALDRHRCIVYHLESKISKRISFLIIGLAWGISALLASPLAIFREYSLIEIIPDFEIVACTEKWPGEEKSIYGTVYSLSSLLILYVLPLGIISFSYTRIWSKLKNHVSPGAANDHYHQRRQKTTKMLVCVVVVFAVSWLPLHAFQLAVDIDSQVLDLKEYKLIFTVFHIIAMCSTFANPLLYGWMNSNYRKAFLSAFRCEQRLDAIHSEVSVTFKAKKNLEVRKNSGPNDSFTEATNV"}, "[2]": {"target": "Y4R"}, "[3]": {"target": "Y1R", "sequence (P25929 whole entry)": "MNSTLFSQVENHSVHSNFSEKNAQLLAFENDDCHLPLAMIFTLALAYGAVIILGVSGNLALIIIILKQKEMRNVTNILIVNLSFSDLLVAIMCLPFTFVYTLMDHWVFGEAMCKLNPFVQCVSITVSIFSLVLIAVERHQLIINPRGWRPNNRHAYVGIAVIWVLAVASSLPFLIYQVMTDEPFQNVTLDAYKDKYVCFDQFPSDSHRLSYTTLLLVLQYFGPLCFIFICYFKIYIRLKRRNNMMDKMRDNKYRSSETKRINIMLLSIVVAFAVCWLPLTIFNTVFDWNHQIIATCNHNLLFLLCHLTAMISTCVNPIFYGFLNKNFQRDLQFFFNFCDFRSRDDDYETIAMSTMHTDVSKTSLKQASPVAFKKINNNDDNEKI"}, "[4]": {"target": "T2, Y5R", "T2 sequence (Q15761 whole entry, species assumed, looked up)": "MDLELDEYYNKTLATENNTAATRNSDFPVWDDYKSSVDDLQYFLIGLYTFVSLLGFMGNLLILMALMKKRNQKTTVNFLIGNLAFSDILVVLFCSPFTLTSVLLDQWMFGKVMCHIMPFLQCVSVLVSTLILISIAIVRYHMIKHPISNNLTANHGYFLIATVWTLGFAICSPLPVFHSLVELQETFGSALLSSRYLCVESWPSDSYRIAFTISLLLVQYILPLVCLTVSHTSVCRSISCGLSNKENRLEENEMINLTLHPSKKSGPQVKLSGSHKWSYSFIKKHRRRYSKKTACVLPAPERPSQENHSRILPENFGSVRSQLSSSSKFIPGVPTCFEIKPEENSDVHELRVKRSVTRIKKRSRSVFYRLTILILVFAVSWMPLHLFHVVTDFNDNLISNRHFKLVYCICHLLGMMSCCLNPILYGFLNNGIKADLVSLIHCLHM"}}, "note": "Numbered stars: 1 amine (or outer) side, 2 acyl side, 3 side chain; on linkers, the order of the positions; unused ones are H or OH. Square brackets hold non-standard residues; d marks the D form. Primed or numbered codes have the meaning given here. HomPqa = 3-hydroxy-2-(4-oxo-6-piperazin-1-yl-4H-quinazolin-3-yl)-propionic acid, O=C(C(CO[*:3])n1cnc2ccc(N3CCN([*:1])CC3)cc2c1=O)[*:2]; Pdp = (6-oxo-2-piperazin-1-yl-1,6-dihydropurin-7-yl)-acetic acid, O=C(Cn1cnc2nc(N3CCN([*:1])CC3)[nH]c(=O)c21)[*:2]; Dqa = (6-[1,4]diazepan-1-yl-4-oxo-4H-quinazolin-3-yl)-acetic acid, O=C(Cn1cnc2ccc(N3CCCN([*:1])CC3)cc2c1=O)[*:2]; Pipa = (1-oxo-7-piperazin-1-yl-1H-isoquinolin-2-yl)-acetic acid, O=C(Cn1ccc2ccc(N3CCN([*:1])CC3)cc2c1=O)[*:2]; Appa = (6-Amino-2-piperazin-1-yl-9H-purin-8-yl)-acetic acid, Nc1nc(N2CCN([*:1])CC2)nc2[nH]c(CC(=O)[*:2])nc12; Cip = (5-Piperazin-1-yl-indole-1-yl)-acetic acid, O=C(Cn1ccc2cc(N3CCN([*:1])CC3)ccc21)[*:2]; Cba′ = (4-Aminomethyl-biphenyl-3-yl)-acetic acid, O=C(Cc1cc(-c2ccccc2)ccc1CN[*:1])[*:2]; Bqa = ((1R,4S)-6-2-Aza-bicyclo[2.2.1]hept-5-yl-4-oxo-4H-quinazolin)-acetic acid; Ppa = (2-piperazin-1-yl-purin-7-yl)-acetic acid; NMeR = CN[C@@H](CCCNC(=N)N)C(=O)O", "data": [{"binder": "Ac-IK[Pipa]RHYLNWVTRQ[NMeR]Y-NH2 (SMILES CC[C@H](C)[C@H](NC(C)=O)C(=O)N[C@@H](CCCCN)C(=O)N1CCN(c2ccc3ccn(CC(=O)N[C@@H](CCCNC(=N)N)C(=O)N[C@@H](Cc4c[nH]cn4)C(=O)N[C@@H](Cc4ccc(O)cc4)C(=O)N[C@@H](CC(C)C)C(=O)N[C@@H](CC(N)=O)C(=O)N[C@@H](Cc4c[nH]c5ccccc45)C(=O)N[C@H](C(=O)N[C@H](C(=O)N[C@@H](CCCNC(=N)N)C(=O)N[C@@H](CCC(N)=O)C(=O)N(C)[C@@H](CCCNC(=N)N)C(=O)N[C@@H](Cc4ccc(O)cc4)C(N)=O)[C@@H](C)O)C(C)C)c(=O)c3c2)CC1)", "note": "[Ac-Ile-Lys-Pipa-Arg-His-Tyr-Leu-Asn-Trp-Val-Thr-Arg-Gln-(NMe)Arg-Tyr-NH2]", "values": [{"measurement": "Y2R EC50 (nM) FLIRR (Ca flux, FLIPR)", "setting": "[1]", "result": 0.045, "unit": "nM"}, {"measurement": "Y2R EC50 (nM) cAMP", "setting": "[1]", "result": 0.18, "unit": "nM"}, {"measurement": "Y4R EC50 (nM) FLIPR", "setting": "[2]", "result": "> 5000", "unit": "nM"}, {"measurement": "Y1R EC50 (nM) FLIPR", "setting": "[3]", "result": "> 5000", "unit": "nM"}, {"measurement": "Y5R EC50 (nM) FLIPR", "setting": "[4]", "result": 2340, "unit": "nM"}]}, {"binder": "Ac-IK[Pdp]RHYLNWVTRQ[NMeR]Y-NH2 (SMILES CC[C@H](C)[C@H](NC(C)=O)C(=O)N[C@@H](CCCCN)C(=O)N1CCN(c2nc3ncn(CC(=O)N[C@@H](CCCNC(=N)N)C(=O)N[C@@H](Cc4c[nH]cn4)C(=O)N[C@@H](Cc4ccc(O)cc4)C(=O)N[C@@H](CC(C)C)C(=O)N[C@@H](CC(N)=O)C(=O)N[C@@H](Cc4c[nH]c5ccccc45)C(=O)N[C@H](C(=O)N[C@H](C(=O)N[C@@H](CCCNC(=N)N)C(=O)N[C@@H](CCC(N)=O)C(=O)N(C)[C@@H](CCCNC(=N)N)C(=O)N[C@@H](Cc4ccc(O)cc4)C(N)=O)[C@@H](C)O)C(C)C)c3c(=O)[nH]2)CC1)", "note": "[Ac-Ile-Lys-Pdp-Arg-His-Tyr-Leu-Asn-Trp-Val-Thr-Arg-Gln-(NMe)Arg-Tyr-NH2]", "values": [{"measurement": "Y2R EC50 (nM) FLIRR (Ca flux, FLIPR)", "setting": "[1]", "result": 0.037, "unit": "nM"}, {"measurement": "Y2R EC50 (nM) cAMP", "setting": "[1]", "result": 0.24, "unit": "nM"}, {"measurement": "Y4R EC50 (nM) FLIPR", "setting": "[2]", "result": "> 9000", "unit": "nM"}, {"measurement": "Y1R EC50 (nM) FLIPR", "setting": "[3]", "result": "> 9000", "unit": "nM"}, {"measurement": "Y5R EC50 (nM) FLIPR", "setting": "[4]", "result": "> 9000", "unit": "nM"}]}, {"binder": "Ac-IK[Dqa]RHYLNWVTRQ[NMeR]Y-NH2", "note": "[Ac-Ile-Lys-Dqa-Arg-His-Tyr-Leu-Asn-Trp-Val-Thr-Arg-Gln-(NMe)Arg-Tyr-NH2]", "values": [{"measurement": "Y2R EC50 (nM) FLIRR (Ca flux, FLIPR)", "setting": "[1]", "result": 0.25, "unit": "nM"}, {"measurement": "Y2R EC50 (nM) cAMP", "setting": "[1]", "result": 0.35, "unit": "nM"}, {"measurement": "Y4R EC50 (nM) FLIPR", "setting": "[2]", "result": "> 9000", "unit": "nM"}, {"measurement": "Y1R EC50 (nM) FLIPR", "setting": "[3]", "result": "> 9000", "unit": "nM"}, {"measurement": "Y5R EC50 (nM) FLIPR", "setting": "[4]", "result": 6030, "unit": "nM"}]}, {"binder": "Ac-IK[Cba′]RHYLNWVTRQ[NMeR]Y-NH2", "note": "[Ac-Ile-Lys-Cba-Arg-His-Tyr-Leu-Asn-Trp-Val-Thr-Arg-Gln-(NMe)Arg-Tyr-NH2]", "values": [{"measurement": "Y2R EC50 (nM) FLIRR (Ca flux, FLIPR)", "setting": "[1]", "result": 0.51, "unit": "nM"}, {"measurement": "Y2R EC50 (nM) cAMP", "setting": "[1]", "result": 1.97, "unit": "nM"}, {"measurement": "Y4R EC50 (nM) FLIPR", "setting": "[2]", "result": "> 30000", "unit": "nM"}, {"measurement": "Y1R EC50 (nM) FLIPR", "setting": "[3]", "result": "> 30000", "unit": "nM"}, {"measurement": "Y5R EC50 (nM) FLIPR", "setting": "[4]", "result": "> 30000", "unit": "nM"}]}, {"binder": "Ac-IK[Appa]RHYLNWVTRQ[NMeR]Y-NH2", "note": "[Ac-Ile-Lys-Appa-Arg-His-Tyr-Leu-Asn-Trp-Val-Thr-Arg-Gln-(NMe)Arg-Tyr-NH2]", "values": [{"measurement": "Y2R EC50 (nM) FLIRR (Ca flux, FLIPR)", "setting": "[1]", "result": 0.156, "unit": "nM"}, {"measurement": "Y2R EC50 (nM) cAMP", "setting": "[1]", "result": 0.18, "unit": "nM"}, {"measurement": "Y4R EC50 (nM) FLIPR", "setting": "[2]", "result": "> 5000", "unit": "nM"}, {"measurement": "Y1R EC50 (nM) FLIPR", "setting": "[3]", "result": "> 5000", "unit": "nM"}, {"measurement": "Y5R EC50 (nM) FLIPR", "setting": "[4]", "result": 3300, "unit": "nM"}]}, {"binder": "Ac-IK[Cip]RHYLNWVTRQ[NMeR]Y-NH2 (SMILES CC[C@H](C)[C@H](NC(C)=O)C(=O)N[C@@H](CCCCN)C(=O)N1CCN(c2ccc3c(ccn3CC(=O)N[C@@H](CCCNC(=N)N)C(=O)N[C@@H](Cc3c[nH]cn3)C(=O)N[C@@H](Cc3ccc(O)cc3)C(=O)N[C@@H](CC(C)C)C(=O)N[C@@H](CC(N)=O)C(=O)N[C@@H](Cc3c[nH]c4ccccc34)C(=O)N[C@H](C(=O)N[C@H](C(=O)N[C@@H](CCCNC(=N)N)C(=O)N[C@@H](CCC(N)=O)C(=O)N(C)[C@@H](CCCNC(=N)N)C(=O)N[C@@H](Cc3ccc(O)cc3)C(N)=O)[C@@H](C)O)C(C)C)c2)CC1)", "note": "[Ac-Ile-Lys-Cip-Arg-His-Tyr-Leu-Asn-Trp-Val-Thr-Arg-Gln-(NMe)Arg-Tyr-NH2]", "values": [{"measurement": "Y2R EC50 (nM) FLIRR (Ca flux, FLIPR)", "setting": "[1]", "result": 0.14, "unit": "nM"}, {"measurement": "Y2R EC50 (nM) cAMP", "setting": "[1]", "result": 0.36, "unit": "nM"}, {"measurement": "Y4R EC50 (nM) FLIPR", "setting": "[2]", "result": "> 30000", "unit": "nM"}, {"measurement": "Y1R EC50 (nM) FLIPR", "setting": "[3]", "result": "> 30000", "unit": "nM"}, {"measurement": "Y5R EC50 (nM) FLIPR", "setting": "[4]", "result": 10700, "unit": "nM"}]}, {"binder": "Ac-IK[HomPqa]RHYLNWVTRQ[NMeR]Y-NH2", "note": "[Ac-Ile-Lys-HomPqa-Arg-His-Tyr-Leu-Asn-Trp-Val-Thr-Arg-Gln-(NMe)Arg-Tyr-NH2]", "values": [{"measurement": "Y2R EC50 (nM) FLIRR (Ca flux, FLIPR)", "setting": "[1]", "result": 0.6, "unit": "nM"}, {"measurement": "Y2R EC50 (nM) cAMP", "setting": "[1]", "result": 4.35, "unit": "nM"}, {"measurement": "Y4R EC50 (nM) FLIPR", "setting": "[2]", "result": 2790, "unit": "nM"}, {"measurement": "Y1R EC50 (nM) FLIPR", "setting": "[3]", "result": "> 9000", "unit": "nM"}, {"measurement": "Y5R EC50 (nM) FLIPR", "setting": "[4]", "result": 4940, "unit": "nM"}]}, {"binder": "Ac-IK[Ppa]RHYLNWVTRQ[NMeR]Y-NH2", "note": "[Ac-Ile-Lys-Ppa-Arg-His-Tyr-Leu-Asn-Trp-Val-Thr-Arg-Gln-(NMe)Arg-Tyr-NH2]", "values": [{"measurement": "Y2R EC50 (nM) FLIRR (Ca flux, FLIPR)", "setting": "[1]", "result": 0.45, "unit": "nM"}, {"measurement": "Y2R EC50 (nM) cAMP", "setting": "[1]", "result": 0.12, "unit": "nM"}, {"measurement": "Y4R EC50 (nM) FLIPR", "setting": "[2]", "result": "> 5000", "unit": "nM"}, {"measurement": "Y1R EC50 (nM) FLIPR", "setting": "[3]", "result": "> 5000", "unit": "nM"}, {"measurement": "Y5R EC50 (nM) FLIPR", "setting": "[4]", "result": 1100, "unit": "nM"}]}, {"binder": "Ac-IK[Bqa]RHYLNWVTRQ[NMeR]Y-NH2", "note": "[Ac-Ile-Lys-Bqa-Arg-His-Tyr-Leu-Asn-Trp-Val-Thr-Arg-Gln-(NMe)Arg-Tyr-NH2]", "values": [{"measurement": "Y2R EC50 (nM) FLIRR (Ca flux, FLIPR)", "setting": "[1]", "result": 0.072, "unit": "nM"}, {"measurement": "Y2R EC50 (nM) cAMP", "setting": "[1]", "result": 0.17, "unit": "nM"}, {"measurement": "Y4R EC50 (nM) FLIPR", "setting": "[2]", "result": "> 5000", "unit": "nM"}, {"measurement": "Y1R EC50 (nM) FLIPR", "setting": "[3]", "result": "> 5000", "unit": "nM"}, {"measurement": "Y5R EC50 (nM) FLIPR", "setting": "[4]", "result": 2870, "unit": "nM"}]}]}
